± gives the half width of the 95% confidence interval.
What was measured:
[1] = folding stability dG unfold from trypsin proteolysis; higher = more stable
In short: (§1)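 Digests were run with trypsin and chymotrypsin at 11 concentrations in threefold dilutions, plus a no-protease condition, on designed mini-proteins in a PA-tagged cDNA display construct. The mini-proteins were under 80 residues, had no cysteine, and were kept only when AlphaFold2 dimer inter-PAE was above 15. After sequencing, Bayesian fitting of the counts gave K50, from which unfolding free energy was derived against a sequence-predicted unfolded-state K50 and a shared folded-state K50, per protease or combined.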

[2] = folding stability dG unfold (combined trypsin and chymotrypsin); higher = more stable
In short: as §1

[3] = folding stability dG unfold from chymotrypsin proteolysis; higher = more stable
In short: as §1

| Sequence | folding stability dG unfold [1] | folding stability dG unfold [2] | folding stability dG unfold [3] |
| --- | --- | --- | --- |
| SAGGSAGGSKKPVLAKIAILNSGSPEVAEELAKRLAAELGLSPDEVKVELHVIPVTAPGELLFSAGGSAGGS [r12_1066_TrMRF] | 0.465 ± 0.02 kcal/mol | 0.416 ± 0.043 kcal/mol | 0.328 ± 0.063 kcal/mol |
| SAGGSAGGSAGGGMAITTRPGSSEVSTTPVPSDVTASTTTPLASGEPVEVTYERVGDPTLSAGGSAGGSAGG [r7_21_JUSTAS] | 0.405 ± 0.022 kcal/mol | 0.0781 ± 0.079 kcal/mol | -0.525 ± 0.16 kcal/mol |
| SAMERVEIVVKVKVRPDMSLEELKERVERELRRLLEERGIELPEGAKITVEIVEETEDYVVVKVTIELPSAG [r14_735_TrROS_Hall] | 4.53 ± 0.24 kcal/mol | 4.4 ± 0.32 kcal/mol | 2.91 ± 0.14 kcal/mol |
| SAGGSATVTVTLVVRDPATGELTTVTATVTLEAAPAPVSVSLSLSLSRDPNGNLSLSLSVSVTVEGSAGGSA [r2_326_TrROS_Hall] | 4.02 ± 0.094 kcal/mol | > 6 kcal/mol | 5.93 ± 0.13 kcal/mol |
| SAGGSAGGSADNKPFKVEIDVEHHPPNGYYRVTIEWPDGREIVVWMPGNPDEAKDQAKELISAGGSAGGSAG [r3_143_TrROS] | 1.28 ± 0.04 kcal/mol | 1.31 ± 0.16 kcal/mol | 1.26 ± 0.22 kcal/mol |
| SAGGSAGGSAEELLKAFPNAEIVKYDPETKKFIIKLKDGSYLVVNLETGEIKLVSKEELEKASAGGSAGGSA [r18_381_TrROS_Hall] | 2.66 ± 0.11 kcal/mol | 3.67 ± 0.076 kcal/mol | 3.94 ± 0.066 kcal/mol |
| SAGGSAGGSAPKPIEITFPAKSLEEAKIAAEEIKRAFEELEDVKVEVEYDPETGTVTVRVYGSAGGSAGGSA [r18_368_TrMRF] | 2.88 ± 0.12 kcal/mol | 3.38 ± 0.088 kcal/mol | 3.58 ± 0.07 kcal/mol |
| SAGGSAGGSAGGKWRPITFPFPDGWYLQIYMNPDGDVKAEIYNPDGKPVEKTFPPGEPIFSAGGSAGGSAGG [r7_215_TrROS] | 1.25 ± 0.027 kcal/mol | 1.55 ± 0.054 kcal/mol | 1.67 ± 0.02 kcal/mol |
| SAGMTIIKIEFPDGSKATVDPTNPSTMTITDPNGNTTVLNLTGVEEAKKQLIETLKKETGLPVKKVEVESAG [r5_119_JUSTAS] | 0.493 ± 0.045 kcal/mol | 1.14 ± 0.088 kcal/mol | 1.38 ± 0.049 kcal/mol |
| SAGGSAGGSAKKKILVKKPDGRLLLIEIDKDKPNTVRIYDIDTGKKIELSVEDLKKLKIKKSAGGSAGGSAG [r3_451_TrROS_Hall] | 1.57 ± 0.034 kcal/mol | 2.08 ± 0.052 kcal/mol | 2.35 ± 0.052 kcal/mol |
| SAGGMMTVRIVIEKDGKKITITAKVTKIEFDEETGKLTITFEDGSKKEIDLDKLKIKKIEVEPAPEEESAGG [r13_636_TrROS_Hall] | 1.66 ± 0.078 kcal/mol | 2.81 ± 0.21 kcal/mol | 3.06 ± 0.19 kcal/mol |
| SAGGSAMKIEEIEKVELKKNENGELTAKIIIKDKKTNKYIEIEITVKPGMTLEEIKKLAEELLKKLSAGGSA [r15_181_TrROS_Hall] | 3.42 ± 0.13 kcal/mol | 2.73 ± 0.14 kcal/mol | 1.96 ± 0.075 kcal/mol |
| SAGGSAGGSMKVVKVELTLTGPGGEVTYLEEEIEVPEDELGEIEVSLPDENLSYEVTVEVIEESAGGSAGGS [r12_354_JUSTAS] | 0.444 ± 0.12 kcal/mol | 1.12 ± 0.18 kcal/mol | 1.41 ± 0.071 kcal/mol |
| SNYLMIRIKEIDPNNPNKIKIEDIHPMPDNGNVQINIEHPGQEIYVMFNSADDAEEFINTLLKNYGLKPESA [r9_258_TrROS] | 0.925 ± 0.053 kcal/mol | 1.33 ± 0.098 kcal/mol | 1.6 ± 0.11 kcal/mol |
| MKKVKVTITITVPEEDKEKVKELIEKLKEAVPNVKVTSVEFDEKTGKITIVVEMTEEELEELKKALKEALES [r1_443_TrROS_Hall] | 2.78 ± 0.11 kcal/mol | 2.06 ± 0.082 kcal/mol | 1.47 ± 0.036 kcal/mol |
| SAGGSAGGSAGGVPEDVIMSPVSTTLVEKEVLSTEVTPEGAPKTVEKVLIVEKTLEPLLSAGGSAGGSAGGS [r10_758_JUSTAS] | 0.0499 ± 0.05 kcal/mol | -0.429 ± 0.29 kcal/mol | -0.853 ± 0.24 kcal/mol |

| Sequence | folding stability dG unfold [1] | folding stability dG unfold [2] | folding stability dG unfold [3] |
| --- | --- | --- | --- |
| MKPLTPEEVKKIAEGIAKEIEKAAKALGIDKVEVPVKIEKLPDGGYKIIIEVKLYKDDKKIGTFPIEIYIDS [r1_364_TrMRF] | 3.51 ± 0.34 kcal/mol | 2.9 ± 0.39 kcal/mol | 3.1 ± 0.14 kcal/mol |
| SAGMDLKIEEEEDPLSGSRLFRIELRDPDGKYNLTVVVLKENGKIKAVLVLRENTGEPLTLPELVELLESAG [r5_872_TrMRF] | 2.83 ± 0.19 kcal/mol | 3.43 ± 0.086 kcal/mol | 3.773 ± 0.017 kcal/mol |
| SAGGPMRRVKVEIKDPDGGKIEIDDVYVPDNSVWAKIFLPDLGREIPFPFDTPDQAVEWIKDFVLQLSAGGS [r16_736_TrROS] | 0.482 ± 0.099 kcal/mol | 0.929 ± 0.29 kcal/mol | 1.15 ± 0.21 kcal/mol |
| SAGMVATLYDPNLPPVSVGITETVTVPHPEGFTVTVTLSSDGTATVTPSDGSSTTLPDASEVRVTATPASAG [r5_869_JUSTAS] | 1.31 ± 0.035 kcal/mol | 1.1 ± 0.044 kcal/mol | 0.921 ± 0.021 kcal/mol |
| SKKVEIKIKVERNEDGYLTVTIEIRAETEEELLEAAKELAKALFPEDVEIRVEKLPDGTVKITIVVKLPPSA [r9_646_TrROS_Hall] | 2.65 ± 0.15 kcal/mol | 2.29 ± 0.14 kcal/mol | 1.9 ± 0.11 kcal/mol |
| SAGGSAGGSAGKWKTITILIPNMPVEEIADRIMDKFGPGIRITEITPNKPGWFWITIIVRSAGGSAGGSAGG [r11_580_TrROS] | 3.29 ± 0.075 kcal/mol | 3.62 ± 0.069 kcal/mol | 3.823 ± 0.037 kcal/mol |
| SAGGMIVIEVETEEEALEAARELAKKLLEKLKEEGIEEVTLTVTVEVVDEKTKEVKTYTLTLTVKKPSAGGS [r8_163_TrROS_Hall] | 3.94 ± 0.23 kcal/mol | 4.08 ± 0.21 kcal/mol | 4.19 ± 0.051 kcal/mol |
| SAGGSAGGEEEYYEIEIVLPKEKAEEILEELKKKLPEGWEIVSVEVVEVDEDGYVRLRIVVKRTSAGGSAGG [r6_340_TrROS_Hall] | 5.01 ± 0.53 kcal/mol | 4.52 ± 0.3 kcal/mol | 4.21 ± 0.14 kcal/mol |
| SAGGSAGGSMTFRVEVFNKKTGKVETIEVEGSLDELKALAPPGALVKIEVDGKTITIPAEELKSAGGSAGGS [r20_36_TrROS_Hall] | 1.67 ± 0.021 kcal/mol | 1.74 ± 0.057 kcal/mol | 1.75 ± 0.059 kcal/mol |
| SAGGSAGGVVVVAKFPTREAVFVAPESLTPEQFAEALRRELGNPDAPLVDLEVRRVTPEELLAASAGGSAGG [r6_120_TrMRF] | -0.269 ± 0.16 kcal/mol | 0.691 ± 0.15 kcal/mol | 1.05 ± 0.12 kcal/mol |
| SAGGSAGGSASSIVLTKTPGSYVLTEVELSSSTYPPSPPDYGSVVTVTPLEVVEREPGVPLPSAGGSAGGSA [r18_255_JUSTAS] | 0.0789 ± 0.12 kcal/mol | 0.176 ± 0.18 kcal/mol | 0.263 ± 0.19 kcal/mol |
| SAGGSAGGSAGPSDDVKPYEVEAEFLIPGTGERVRVRAEVYTLDEEKGLALVRVEVEPVLSAGGSAGGSAGG [r11_1029_TrMRF] | 1.54 ± 0.07 kcal/mol | 2.41 ± 0.18 kcal/mol | 2.88 ± 0.054 kcal/mol |
| SAGGSAGGSGMTLEEIAERLKEEYNAPEVKVTRDPSKPVYTVTVTLADGSTKTYTIYVPEELGSAGGSAGGS [r12_114_JUSTAS] | 2.63 ± 0.047 kcal/mol | 3.44 ± 0.092 kcal/mol | 3.73 ± 0.051 kcal/mol |
| SNELAKEIADELKKQGYEVKDVEVQYSPDDGMVEIEARIRHPDDGRQYRIDIHVNPDDGKITQVKIEPRPSA [r9_814_TrROS] | 0.857 ± 0.028 kcal/mol | 0.825 ± 0.17 kcal/mol | 0.644 ± 0.17 kcal/mol |
| SAGGSAMVYLVTVTIKSEGKEVRYKEWVESDEPEKLIEKVKKEYPNEEIKVEITPFPSKEEAEKLLSAGGSA [r15_889_JUSTAS] | 2.36 ± 0.098 kcal/mol | 2.41 ± 0.096 kcal/mol | 2.48 ± 0.042 kcal/mol |
